{"source": "paper PMC12035560", "about": "“Structures of Mycobacterium tuberculosis isoprenyl diphosphate synthase Rv2173 in substrate-bound forms” (Acta Crystallographica Section F: Structural Biology …, 2025)", "proteins": {"B1": {"name": "Mycobacterium tuberculosis isoprenyl diphosphate synthase Rv2173 (enzyme)", "chain": "LESTSLYKKAGSAAALFRFKKEPFTMAGAITDQLRRYLHGRRRAAAHMGSDYDGLIADLEDFVLGGGKRLRPLFAYWGWHAVASREPDPDVLLLFSALELLHAWALVHDDLIDRSATRRGRPTAQLRYAALHRDRDWRGSPDQFGMSAAILLGDLAQVWADDIVSKVCQSALAPDAQRRVHRVWADIRNEVLGGQYLDIVAEASAAESIESAMNVATLKTACYTVSRPLQLGTAAAADRSDVAAIFEHFGADLGVAFQLRDDVLGVFGDPAVTGKPSGDDLKSGKRTVLVAEAVELADRSDPLAAKLLRTSIGTRLTDAQVRELRTVIEAVGARAAAESRIAALTQRALATLASAPINATAKAGLSELAMMAANRSA", "notes": "also called tagged Rv2173; not shown: His6, N-terminal, kept"}}, "target": "the molecule itself", "test": "crystal structure"}
{"protein": "B1", "values": [{"measurement": "stoichiometry N", "result": 2}]}
